Results reported in the supplement of paper PMC7125110.
± gives the standard error. For some assays here: Fewer inactive variants are shown than the library holds.

B1: glmS ribozyme (parent)
chain: AUAAAAGCGCCAGAACUACAGAAAUGUAGUUGACGAGGAGGAGGUUUAUCGAAUUUUCGGCGGAUGCCUCCAAA

Key:
Conditions in all cases: with glucosamine-6-phosphate
glucosamine-6-phosphate [1] = variants of: B1; assay: kcat; higher = faster cleavage; RNA array
Method in brief: (§1)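 The measurements used barcoded ribozyme variants on sequenced MiSeq chips, transcribed in situ by E. coli RNA polymerase and tracked at 37 °C with a hybridised Cy3 probe. Glucosamine-6-phosphate, 40 μM to 10 mM in HEPES/KCl/Mg(OAc)2 buffer, was flowed in while tiles were imaged over ~14 h. Baseline-normalised signals, also normalised to non-cleaving reference variants, gave per-tile medians that were fit to one- or two-exponential decays for kobs. kcat and KM resulted from weighted Michaelis–Menten fits across concentrations.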

glucosamine-6-phosphate [2] = variants of: B1; assay: KM; higher = weaker cofactor use; RNA array
Method in brief: as §1

glucosamine-6-phosphate [3] = variants of: B1; assay: self-cleavage kobs at 160 uM GlcN6P; higher = faster cleavage; RNA array
Method in brief: as §1

glucosamine-6-phosphate [4] = variants of: B1; assay: self-cleavage kobs at 640 uM GlcN6P; higher = faster cleavage; RNA array
Method in brief: as §1

glucosamine-6-phosphate [5] = variants of: B1; assay: self-cleavage kobs at 2500 uM GlcN6P; higher = faster cleavage; RNA array
Method in brief: as §1

glucosamine-6-phosphate [6] = variants of: B1; assay: self-cleavage kobs at 10000 uM GlcN6P; higher = faster cleavage; RNA array
Method in brief: as §1

glucosamine-6-phosphate [7] = variants of: B1; assay: self-cleavage kobs at 40 uM GlcN6P; higher = faster cleavage; RNA array
Method in brief: as §1

| Variant | kcat (glucosamine-6-phosphate [1]) | KM (glucosamine-6-phosphate [2]) | self-cleavage kobs at 160 uM GlcN6P (glucosamine-6-phosphate [3]) | self-cleavage kobs at 640 uM GlcN6P (glucosamine-6-phosphate [4]) | self-cleavage kobs at 2500 uM GlcN6P (glucosamine-6-phosphate [5]) | self-cleavage kobs at 10000 uM GlcN6P (glucosamine-6-phosphate [6]) | self-cleavage kobs at 40 uM GlcN6P (glucosamine-6-phosphate [7]) |
| --- | --- | --- | --- | --- | --- | --- | --- |
| AUAAAAGCGCCAGAACUACAGAAAUGUAGUUGACGAGGACGAGGUUGAUCGAAUUUUCGGCGGAUGCCUCCAAA [G40C U47G] | 0.000514 ± 9.8e-05 s⁻¹ | 1190 ± 440 µM | 7.96e-05 ± 1.8e-05 s⁻¹ | 0.000157 ± 2.4e-05 s⁻¹ | 0.00041 ± 5.3e-05 s⁻¹ | 0.000412 ± 7.9e-05 s⁻¹ | – |
| AUAAAAGCGCCAGAACUACAGAAAUGUAGUUGACGAGGAGGAGGUUUAUCGAAUUUUCGGCGGAUGCCAGCAAA [U69A C70G] | 1.72e-05 ± 8e-06 s⁻¹ | – | – | – | – | – | – |
| AUAAAAGCGCCAGAACUACAGAAAUGUAGUUUCCGAGGAGGAGGUUUAUCGAAUUUUCGGCGGAUGCCUCCAAA [G32U A33C] | < 1e-05 s⁻¹ | – | < 1e-05 s⁻¹ | < 1e-05 s⁻¹ | – | – | – |
| AUAAAAGCGCCUGAACUACAGAAAUGUAGUUGACGAGGAGGAGGUUUAUCGAAUUUGCGGCGGAUGCCUCCAAA [A12U U57G] | 0.000297 ± 3.7e-05 s⁻¹ | 2260 ± 590 µM | 4.4e-05 ± 2.1e-05 s⁻¹ | 6.1e-05 ± 1.2e-05 s⁻¹ | 0.000162 ± 2.6e-05 s⁻¹ | 0.000241 ± 3e-05 s⁻¹ | – |
| AUAAAAGCGCCAGAACUACAGAAAUGUAGUUGACGAGGAGGAGGUUUAUCGAAUUUUCGGCGGCUGCAUCCAAA [A64C C68A] | < 1e-05 s⁻¹ | – | – | – | – | < 1e-05 s⁻¹ | < 1e-05 s⁻¹ |
| AUAAAAGCGCCUGAACUACAGAAAUGUAGUUGACGAGGAGGAGGUUUAUCGAAUUUUCGGCGGCUGCCUCCAAA [A12U A64C] | 0.000692 ± 7.8e-05 s⁻¹ | 3580 ± 660 µM | 4.03e-05 ± 1.6e-05 s⁻¹ | 0.000107 ± 1.6e-05 s⁻¹ | 0.000264 ± 3.9e-05 s⁻¹ | 0.000531 ± 7.6e-05 s⁻¹ | – |
| AUAAAAGCGCCAGAACUACAGAAAUGUAGUUGUCGAGGAGGAGGUUUAUCGAAUUUUCGGCGGAUGCCUUCAAA [A33U C70U] | 0.000127 ± 1.1e-05 s⁻¹ | 2760 ± 730 µM | – | 3.24e-05 ± 9.8e-06 s⁻¹ | 5.5e-05 ± 8.7e-06 s⁻¹ | 0.0001 ± 6.7e-06 s⁻¹ | – |
| AUAAAAGCGCCAGAACUACAGAAAUGUAGUCGACGAGGAGGAGGUUUAUCGUAUUUUCGGCGGAUGCCUCCAAA [U31C A52U] | 7.02e-05 ± 1.4e-05 s⁻¹ | – | – | – | 5.04e-05 ± 6e-06 s⁻¹ | 5.66e-05 ± 7.1e-06 s⁻¹ | – |
| AUAAAAGCGCCAGUACUACAGAAAUGUAGUUGACGAGGAGGAGGUUUCUCGAAUUUUCGGCGGAUGCCUCCAAA [A14U A48C] | 7.33e-05 ± 4.6e-06 s⁻¹ | 2020 ± 420 µM | – | – | 3.85e-05 ± 9.5e-06 s⁻¹ | 6.17e-05 ± 9.4e-06 s⁻¹ | – |
| AUAAAAGCGCCAGAACUACAGAAAUGUAGUUGACGGGGAGGAGGUUUAUCGAAUUUUCGGCGGAUGCCUGCAAA [A36G C70G] | 1.29e-05 ± 3e-06 s⁻¹ | – | < 1e-05 s⁻¹ | – | – | – | – |
| AUAAAAGCGCCAGAACUACAGAAAUGUAGUUGACGAGGAUGAGGUUUAUCGACUUUUCGGCGGAUGCCUCCAAA [G40U A53C] | 0.00186 ± 0.00029 s⁻¹ | 2780 ± 760 µM | 0.00012 ± 3.1e-05 s⁻¹ | 0.000309 ± 4.6e-05 s⁻¹ | 0.00086 ± 0.0001 s⁻¹ | 0.00149 ± 0.00016 s⁻¹ | 4.37e-05 ± 1.2e-05 s⁻¹ |
| AUAAAAGCGCCAGAACUACAGAAAUGUAAUUCACGAGGAGGAGGUUUAUCGAAUUUUCGGCGGAUGCCUCCAAA [G29A G32C] | 0.000144 ± 1.8e-05 s⁻¹ | 5140 ± 1500 µM | – | – | 5.01e-05 ± 9.3e-06 s⁻¹ | 9.45e-05 ± 9.1e-06 s⁻¹ | – |
| AUAAAAGCGCCAGAACUACAGAAAUGUAGUUUACGAGGAAGAGGUUUAUCGAAUUUUCGGCGGAUGCCUCCAAA [G32U G40A] | 0.000344 ± 5e-05 s⁻¹ | 3450 ± 950 µM | – | 6.33e-05 ± 6.7e-06 s⁻¹ | 0.000131 ± 1e-05 s⁻¹ | 0.000267 ± 1.9e-05 s⁻¹ | – |
| AUAAAAGCGCCAGAACUACAGAAAUGUAGAUGACGAGGAGGAGGUUUAUCGAAUUUUCGGCGGAUGCCACCAAA [U30A U69A] | 5.09e-05 ± 2.2e-05 s⁻¹ | – | 5.73e-05 ± 2.4e-05 s⁻¹ | – | 9.65e-05 ± 1.8e-05 s⁻¹ | 3.22e-05 ± 1.1e-05 s⁻¹ | – |
| AUAAAAGCGCCAGAACUACAGAAAUGUAGUUGACGAGGAGGAGGUUUAUCGAAUUUUCGGCGGAUGCUUCGAAA [C68U C71G] | 1.73e-05 ± 3.6e-06 s⁻¹ | – | – | 2.44e-05 ± 1e-05 s⁻¹ | 1.93e-05 ± 8.3e-06 s⁻¹ | – | – |
| AUAAAAGCGCCAGAACUACAGAAAUGUAGUUGACGAGGAGGAGGUUAAUCGAAUUUUCGGCGGAUGCUUCCAAA [U47A C68U] | 0.00394 ± 0.0013 s⁻¹ | 3290 ± 1500 µM | 0.000161 ± 3.2e-05 s⁻¹ | 0.00068 ± 0.00012 s⁻¹ | 0.00129 ± 0.00025 s⁻¹ | 0.00346 ± 0.00049 s⁻¹ | 7.13e-05 ± 1.3e-05 s⁻¹ |
| AUAAAAGCGCCAGAACUACAGAAAUGUAGUAGACGAGGAGGAGGUUUAUAUAGUUUUCGGCGGAUGCCUCCAAA [U31A C50A G51U A53G] | < 1e-05 s⁻¹ | – | < 1e-05 s⁻¹ | – | – | – | – |
| AUAAAAGCGCCGGAACUACAGAAAUGUAGUUGACGAGGAGGAGGUUUAUCGGGUUUUCGGCGGAUGCCUCCAAA [A12G A52G A53G] | 2.52e-05 ± 7.9e-06 s⁻¹ | – | – | – | – | – | – |
| AUAAAAGCGCCACAACUACAGAAAUGUAGUUGACGAGGAGGAGGUUUAUCGAAUUUUCGGCGGAUGCCACCAAA [G13C U69A] | 2.51e-05 ± 9.3e-06 s⁻¹ | – | – | 4.85e-05 ± 2.3e-05 s⁻¹ | – | – | – |
